“And” between values parts separate entries of the source, which are not always exact repeats. Equal entries are not always repeated.

In this test the target is 全序列COVID-19刺突蛋白 (on COVID-19 pseudovirus) (COVID-19 (SARS-CoV-2), UniProt P0DTC2 14-1273). In words: cell-based or functional assay.

B1: 人源化单克隆抗体CB6 (antibody, V domains shown)
VH: EVQLVESGGGLVQPGGSLRLSCAASGFTVSSNYMSWVRQAPGKGLEWVSVIYSGGSTFYADSVKGRFTISRDNSMNTLFLQMNSLRAEDTAVYYCARVLPMYGDYLDYWGQGTLVTVSS
VL: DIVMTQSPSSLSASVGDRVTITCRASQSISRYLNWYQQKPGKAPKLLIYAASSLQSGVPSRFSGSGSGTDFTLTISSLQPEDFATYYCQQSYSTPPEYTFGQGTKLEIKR
As to B1, the “IC50 of inhibition of COVID-19 pseudovirus infection of Huh-7 cells (luciferase)” value was 0.183 nM and 0.0275 μg/ml.
